This is an account of results in patent publication US20260021168A1.

In series [1] the target is Thymoglobulin (Genzyme), rabbit anti-thymocyte globulin. The series is described as follows: cell-based or functional assay.
Series [2] has as its target ATGAM (equine Anti-thymocyte Globulin). In words: cell-based or functional assay.
In series [3] the target is alemtuzumab (Campath, anti-CD52, Genzyme), intact IgG. In words: cell-based or functional assay.
For series [4], the target named is endogenous human serum IgG.

In series [1], “imlifidase (IdeS, Immunoglobulin G-degrading enzyme of S. pyogenes)” displayed a cleavage of 50 µg/mL rATG in sera of imlifidase-treated subjects, SDS-PAGE and Western blot of 0.5 µg/mL. This molecule registered a cytotoxic activity of ATGAM in whole blood after imlifidase treatment, CD3+ flow cytometry in series [2] of more than 30 µg/mL. In series [3], this molecule came in with a block of the cytotoxic effect of alemtuzumab on CD3-positive T-cells in whole blood, flow cytometry of 1.9 µg/mL and an imlifidase concentration sufficient for cleavage in whole blood (SDS-PAGE of plasma, CD3+ flow cytometry) of 4 µg/mL.

B1: imlifidase (IdeS, Immunoglobulin G-degrading enzyme of S. pyogenes) (protein)
chain: DSFSANQEIRYSEVTPYHVTSVWTKGVTPPANFTQGEDVFHAPYVANQGWYDITKTFNGKDDLLCGAATAGNMLHWWFDQNKDQIKRYLEEHPEKQKINFNGEQMFDVKEAIDTKNHQLDSKLFEYFKEKAFPYLSTKHLGVFPDHVIDMFINGYRLSLTNHGPTPVKEGSKDPRGGIFDAVFTRGDQSKLLTSRHDFKEKNLKEISDLIKKELTEGKALGLSHTYANVRINHVINLWGADFDSNGNLKAIYVTDSDSNASIGMKKYFVGVNSAGKVAISAKEIKEDNIGAQVLGLFTLSTGQDSWNQTN
In the case of B1, the “imlifidase concentration sufficient for cleavage in whole blood (SDS-PAGE of plasma)” value in series [4] is “a concentration of approx. 4 µg/mL imlifidase is sufficient to cleave all serum IgG and 100 µg/mL alemtuzumab”.
